B1: TCR6 of Tables 1A and 1B (TCR7 of the examples) (TCR, V domains shown)
Valpha: AQTVTQSQPEMSVQEAETVTLSCTYDTSENNYYLFWYKQPPSRQMILVIRQEAYKQQNATENRFSVNFQKAAKSFSLKISDSQLGDTAMYFCAFVDSGYALNFGKGTSLLVTP
Vbeta: DVKVTQSSRYLVKRTGEKVFLECVQDMDHENMFWYRQDPGLGLRLIYFSYDVKMKEKGDIPEGYSVSREKKERFSLILESASTNQTSMYLCASSLDGARTQYFGPGTRLTVL
B2: TCR4 (TCR10) (TCR, V domains shown)
Valpha: LAKTTQPISMDSYEGQEVNITCSHNNIATNDYITWYQQFPSQGPRFIIQGYKTKVTNEVASLFIPADRKSSTLSLPRVSLSDTAVYYCLVGGDEDMRFGAGTRLTVKP
Vbeta: EAGVAQSPRYKIIEKRQSVAFWCNPISGHATLYWYQQILGQGPKLLIQFQNNGVVDDSQLPKDRFSAERLKGVDSTLKIQPAKLEDSAVYLCASSLEYGPTYEQYFGPGTRLTVT

What was measured:
[1] = molecular target: T1, GPC5 peptide on HLA-A*02:01 (human); assay: killing
T1 peptide: KLLEQVNRI

[2] = molecular target: T2, MIA3 peptide on HLA-A*02:01 (human); assay: killing
T2 peptide: KVLDKVFRA

[3] = molecular target: T3, PTRF peptide on HLA-A*02:01 (human); assay: killing
T3 peptide: KLLEKVRKV

[4] = molecular target: T4, GRP78 peptide on HLA-A*02:01 (human); assay: killing
T4 peptide: KVTHAVVTV

[5] = molecular target: T5, ATAD2 peptide on HLA-A*02:01 (human); assay: killing
T5 peptide: KILEALQRV

[6] = molecular target: T6, NSD1 peptide on HLA-A*02:01 (human); assay: killing
T6 peptide: KVQEQVHKV

[7] = molecular target: T7, RG1L peptide on HLA-A*02:01 (human); assay: killing
T7 peptide: FLLETVVRV

[8] = molecular target: T8, ANO5 peptide on HLA-A*02:01 (human); assay: killing
T8 peptide: IVMEHVVFL

[9] = molecular target: T9, TP2 peptide on HLA-A*02:01 (human); assay: killing
T9 peptide: KILEDVVGV

[10] = molecular target: T10, TSC1 peptide on HLA-A*02:01 (human); assay: killing
T10 peptide: SLLGHVIRL

[11] = molecular target: T11, TRMT1L peptide on HLA-A*02:01 (human); assay: killing
T11 peptide: VALEHFVLV

[12] = molecular target: T12, PSME2 peptide on HLA-A*02:01 (human); assay: killing
T12 peptide: KVLERVNAV

[13] = molecular target: T13, MADD peptide on HLA-A*02:01 (human); assay: killing
T13 peptide: ILLEHKVVL

[14] = molecular target: T14, HNRNPR peptide on HLA-A*02:01 (human); assay: killing
T14 peptide: KVWGNVVTV

[15] = molecular target: T15, SYNE3 peptide on HLA-A*02:01 (human); assay: killing
T15 peptide: KLLDLQVRV

[16] = molecular target: T16, AXIN1 peptide on HLA-A*02:01 (human); assay: killing
T16 peptide: ILDEHVQRV

[17] = molecular target: T17, HTR5A peptide on HLA-A*02:01 (human); assay: killing
T17 peptide: KVLETLVTV

[18] = molecular target: T18, KIAA1033 peptide on HLA-A*02:01 (human); assay: killing
T18 peptide: KVLNKVITV

[19] = molecular target: T19, HERC4 peptide on HLA-A*02:01 (human); assay: killing
T19 peptide: KVLEILHRV

[20] = molecular target: T20, CNOT1 peptide on HLA-A*02:01 (human); assay: killing
T20 peptide: KVLGIVVGV

[21] = molecular target: T21, MAGE-A4 (100% identical in MAGEA8) peptide on HLA-A*02:01 (human); assay: multimer staining
T21 peptide: KVLEHVVRV

| Binder | binding result [1] | binding result [2] | binding result [3] | binding result [4] | binding result [5] | binding result [6] | binding result [7] | binding result [8] | binding result [9] | binding result [10] | binding result [11] | binding result [12] | binding result [13] | binding result [14] | binding result [15] | binding result [16] | binding result [17] | binding result [18] | binding result [19] | binding result [20] | other results |
| --- | --- | --- | --- | --- | --- | --- | --- | --- | --- | --- | --- | --- | --- | --- | --- | --- | --- | --- | --- | --- | --- |
| B1 | no recognition | no recognition | no recognition | no recognition | no recognition | no recognition | no recognition | no recognition | no recognition | no recognition | no recognition | no recognition | no recognition | no recognition | no recognition | no recognition | no recognition | no recognition | no recognition | no recognition | binding result [21]: recognises |
| B2 | no recognition | no recognition | no recognition | no recognition | no recognition | no recognition | no recognition | no recognition | no recognition | no recognition | no recognition | no recognition | no recognition | no recognition | no recognition | no recognition | no recognition | no recognition | no recognition | no recognition | binding result [21]: recognises |

Source: patent publication US20260085105A1 (Amgen, published 2026)
